Measured values published in publication PMC2034677 (Molecular microbiology, 2002).

Target: the molecule itself
Assay: native gel or EMSA

B1: GST–endoE fusion protein (recombinant bacteriophage K1E endosialidase, wild type) (enzyme, UniProt P49714 1-706, looked up)
chain: MIQRLGSSLVKFKSKIAGAIWRNLDDKLTEVVSLKDFGAKGDGKTNDQDAVNAAMASGKRIDGAGATYKVSSLPDMERFYNTRFVWERLAGQPLYYVSKGFINGELYKITDNPYYNAWPQDKAFVYENVIYAPYMGSDRHGVSRLHVSWVKSGDDGQTWSTPEWLTDMHPDYPTVNYHCMSMGVCRNRLFAMIETRTLAKNELTNCALWDRPMSRSLHLTGGITKAANQRYATIHVPDHGLFVGDFVNFSNSAVTGVSGDMKVATVIDKDNFTVLTPNQQTSDLNNAGKNWHMGTSFHKSPWRKTDLGLIPRVTEVHSFATIDNNGFVMGYHQGDVAPREVGLFYFPDAFNSPSNYVRRQIPSEYEPDAAEPCIKYYDGVLYLITRGTRGDRLGSSLHRSRDIGQTWESLRFPHNVHHTTLPFAKVGDDLIMFGSERAENEWEAGAPDDRYKASYPRTFYARLNVNNWNADDIEWVNITDQIYQGDIVNSSVGVGSVVVKDSFIYYIFGGENHFNPMTYGDNKDKDPFKGHGHPTDIYCYKMQIANDNRVSRKFTYGATPGQAIPTFMGTDGIRNIPAPLYFSDNIVTEDTKVGHLTLKASTSANIRSEMQMEGEYGFIGKSVPKDKPTGQRLIICGGEGTSSSSGAQITLHGSNSSNAKRITYNGNEHLFQGAPIMPAVDNQFAAGGPSNRFTTIYLGSDPVTTS
stoichiometry N: 3
